# From publication PMC4861493, “Functional Evolution in Orthologous Cell-encoded RNA-dependent RNA Polymerases*” (The Journal of Biological Chemistry, 2016)
# B1: QDE-1^Tte catalytic fragment (RNA-dependent RNA polymerase QDE-1 of Thielavia terrestris) (enzyme)
# chain: EVYARLQNIWPKFPRWLHAAPLALAWELTRICLHCKVDLEDPTLRYDPSWATSDMAALWRSLTQLDVFRGKSFPERPSAEAFAAALTGNFESRGNTVVLSASLEFNPSKTGPLFLLDMKPLRFDEGCRLTRRFGPDRFLEVLVPSPTALNAPSILKDGGAAQVIRWLTEKPHSLVGRQWQAFYTKDAGYRKPARELRLGPDAKATFKERVHFFAERGHDFRPAPLRTRAQLPPESPSRRRTEIRVSEMLDWLLQLEQNEYQPHLKLFSRIQLGLSKTFPTVTFEPNQIRHRTDDILSPAGKIMNDGIGRMSRSVARKIRDALGLSDIPSAIQGRMGSAKGMWLMDVADAGDDDWIETYPSQRKWKCDDADALHRTLEIRSVSTELKPAALNLQFLPVLEDRAKDKARMRRAIAARLMNDLKKQFDSQKAAVERPLQFRQWVNECTNSRSERVRHGQVPFLGGLPENKGEVLSFLLNSGFDRRQKYIQDLAFDLQKQRCEVLRTKLNIHVGRSAYMFMVVDFWGVLEENEVHVGFSSKFRDDVDDTTYMLLTDCDVLVARSPAHFPSDIQKVRAVFKPQLHALKDVIVFPAKGDIPLADKLSGGDYDGDMAWVCWDPDIVENFTNADMPKEPDLSAYLGKDKTTFGELVRDTGRTGAAARHEAVYDMINKSFQFAMQPNYLGICTNYKERVCYHNNSVSDGVALLLSTLVGKLVDQSKQGILFDAASWDRLRRERLGGRMSVEDPAYKGDVWAGAGEPRHIVDYLKFAVAKPTIDRELEELHKVMQASRRAGPDDDAAAHSWDPDLAVYFENFKALTAESRSLRAVLEALQNALGAVEHEWKVLMSKGSSSSLTYPEKVRQLHAKWCAIEPRAVGRAGSNRLDAKTAALLEQPFLADRGGAGTSYWALLRASTAFKAYYKTNPKFVWQMAGAQLAFIKAQMSSPGGGGGGGSDGMPLLVTPLMYAGLAPDGRFVKQYLARLECDGSQYPDDDLEGDGEDGGGGGGRGDDVD
# notes: QDE-1 ortholog of Thielavia terrestris, catalytic fragment; synthetic ORF from Genscript cloned into pFB-LIC-Bse; the monomer used for crystallization has 1,034 residues including the His tag and the tobacco etch virus protease cleavage site; numbers count on: the catalytic fragment; A TEV protease cleavage site lies between the His tag and the fragment and was not cut in the crystallized …
# Target: the molecule itself
# Test: crystal structure; QDE-1^Tte catalytic fragment apoenzyme, crystals grown at 30 °C in 100 mM Tris-HCl pH 8.0, 75 mM NaCl, 10% PEG 10,000, 5 mM MgCl2, 6 mM spermine; 3.19 Å; two non-crystallographic dimers (A/B, C/D) in the asymmetric unit
protein,measurement,value
B1,stoichiometry N,2
